Experimental data reported in paper PMC9482650, “Quantitative fragmentomics allow affinity mapping of interactomes” (Nature Communications, 2022).

Legend:
Assay in all cases: holdup assay
Design in all cases: key: below the threshold = too weak to quantify, mostly under pKd 3.1 to 4
[1] = target: PDLIM1, O00151
[2] = target: T1, MPDZ_12, O75970
T1 sequence (O75970 1857-1958, limits assumed, looked up): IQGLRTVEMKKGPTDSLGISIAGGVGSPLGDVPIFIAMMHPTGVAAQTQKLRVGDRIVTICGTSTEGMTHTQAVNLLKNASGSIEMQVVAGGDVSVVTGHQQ

[3] = target: IL16_1, Q14005
[4] = target: Inadl_3, Q8NI35
[5] = target: T2, MPP7, Q5T2T1
T2 sequence (Q5T2T1 134-230, limits assumed, looked up): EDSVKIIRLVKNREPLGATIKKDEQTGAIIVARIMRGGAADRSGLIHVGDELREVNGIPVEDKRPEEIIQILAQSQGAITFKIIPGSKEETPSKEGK

[6] = target: T3, DFNB31_3, Q9P202
T3 sequence (Q9P202 811-907, limits assumed, looked up): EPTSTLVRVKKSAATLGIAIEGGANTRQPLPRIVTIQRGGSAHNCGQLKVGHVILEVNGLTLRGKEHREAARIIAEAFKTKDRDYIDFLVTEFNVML

[7] = target: HTRA1, Q92743
[8] = target: T4, GRIP1_4, Q9Y3R0
T4 sequence (Q9Y3R0 467-571, limits assumed, looked up): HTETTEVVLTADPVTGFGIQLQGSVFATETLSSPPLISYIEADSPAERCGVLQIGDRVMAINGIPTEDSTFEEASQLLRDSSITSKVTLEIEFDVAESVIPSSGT

[9] = target: TJP1_2, Q07157
[10] = target: Inadl_4, Q8NI35
[11] = target: T5, DLG3_2, Q92796
T5 sequence (Q92796 221-321, limits assumed, looked up): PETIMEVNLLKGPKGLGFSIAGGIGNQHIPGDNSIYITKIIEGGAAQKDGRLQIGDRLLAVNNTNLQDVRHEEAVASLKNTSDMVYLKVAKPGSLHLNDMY

[12] = target: T6, SNTA1, Q13424
T6 sequence (Q13424 82-180, limits assumed, looked up): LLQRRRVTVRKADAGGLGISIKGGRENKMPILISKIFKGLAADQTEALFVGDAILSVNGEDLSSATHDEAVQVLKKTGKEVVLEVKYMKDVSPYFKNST

[13] = target: T7, DFNB31_2, Q9P202
T7 sequence (Q9P202 274-371, limits assumed, looked up): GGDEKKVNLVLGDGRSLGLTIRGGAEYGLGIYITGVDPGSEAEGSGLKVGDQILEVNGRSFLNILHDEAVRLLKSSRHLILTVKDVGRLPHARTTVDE

[14] = target: T8, MPDZ_10, O75970
T8 sequence (O75970 1624-1722, limits assumed, looked up): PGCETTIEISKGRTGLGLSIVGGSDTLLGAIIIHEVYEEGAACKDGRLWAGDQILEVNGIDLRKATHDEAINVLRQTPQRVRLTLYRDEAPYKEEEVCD

[15] = target: FRMPD3, Q5JV73
[16] = target: MAGI3_2, Q5TCQ9
[17] = target: T9, MPDZ_5, O75970
T9 sequence (O75970 695-796, limits assumed, looked up): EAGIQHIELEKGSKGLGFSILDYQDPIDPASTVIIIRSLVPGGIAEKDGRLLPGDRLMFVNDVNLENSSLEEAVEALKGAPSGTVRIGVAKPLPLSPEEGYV

[18] = target: T10, TX1BP3, O14907
T10 sequence (O14907 10-122, limits assumed, looked up): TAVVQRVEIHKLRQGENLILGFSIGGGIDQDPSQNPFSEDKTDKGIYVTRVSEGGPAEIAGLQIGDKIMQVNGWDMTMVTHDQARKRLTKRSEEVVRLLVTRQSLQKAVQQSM

[19] = target: GRIP2_6, Q9C0E4
[20] = target: MAGI2_2, Q86UL8
[21] = target: LIMK2, P53671
[22] = target: T11, PDZD2_2, O15018
T11 sequence (O15018 329-429, limits assumed, looked up): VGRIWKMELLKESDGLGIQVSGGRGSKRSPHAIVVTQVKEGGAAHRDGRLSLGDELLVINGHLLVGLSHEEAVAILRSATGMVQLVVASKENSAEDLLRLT

[23] = target: T12, ARHGAP21, Q5T5U3
T12 sequence (Q5T5U3 45-169, limits assumed, looked up): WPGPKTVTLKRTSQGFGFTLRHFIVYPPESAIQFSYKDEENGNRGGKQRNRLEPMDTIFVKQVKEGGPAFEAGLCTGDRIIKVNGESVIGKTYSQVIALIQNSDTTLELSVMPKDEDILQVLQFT

[24] = target: T13, PDZRN3_1, Q9UPQ7
T13 sequence (Q9UPQ7 244-349, limits assumed, looked up): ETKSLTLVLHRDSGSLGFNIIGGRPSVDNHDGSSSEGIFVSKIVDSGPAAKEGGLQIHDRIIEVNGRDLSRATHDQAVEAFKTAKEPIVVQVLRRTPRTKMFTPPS

[25] = plain residues with an end cap or a label only (N-terminal biotin on a linker: ado-ado)
[26] = plain residues with an end cap or a label only (N-terminal biotin on a linker: (peg)3)

Measured: pKd

Sequence of IL16_1, Q14005 (Q14005 210-306): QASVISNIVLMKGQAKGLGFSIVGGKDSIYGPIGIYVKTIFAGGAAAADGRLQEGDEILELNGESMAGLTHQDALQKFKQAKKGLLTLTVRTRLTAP
Sequence of GRIP2_6, Q9C0E4 (Q9C0E4 648-740): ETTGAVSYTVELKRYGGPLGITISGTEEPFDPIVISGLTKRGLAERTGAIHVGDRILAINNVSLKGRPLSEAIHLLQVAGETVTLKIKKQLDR
Sequence of PDLIM1, O00151 (O00151 1-87): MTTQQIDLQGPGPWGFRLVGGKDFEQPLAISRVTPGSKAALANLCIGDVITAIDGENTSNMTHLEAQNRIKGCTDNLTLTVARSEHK
Sequence of FRMPD3, Q5JV73 (Q5JV73 12-100): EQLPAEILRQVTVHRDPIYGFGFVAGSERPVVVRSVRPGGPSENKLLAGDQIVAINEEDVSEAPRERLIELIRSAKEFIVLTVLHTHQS
Sequence of TJP1_2, Q07157 (Q07157 181-274): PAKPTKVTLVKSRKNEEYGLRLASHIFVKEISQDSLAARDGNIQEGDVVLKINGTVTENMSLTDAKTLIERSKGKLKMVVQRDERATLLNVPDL
Sequence of MAGI3_2, Q5TCQ9 (Q5TCQ9 398-503): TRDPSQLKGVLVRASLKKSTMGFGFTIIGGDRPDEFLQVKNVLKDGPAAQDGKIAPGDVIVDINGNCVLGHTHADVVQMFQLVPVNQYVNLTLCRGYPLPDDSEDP
Sequence of LIMK2, P53671 (P53671 143-248): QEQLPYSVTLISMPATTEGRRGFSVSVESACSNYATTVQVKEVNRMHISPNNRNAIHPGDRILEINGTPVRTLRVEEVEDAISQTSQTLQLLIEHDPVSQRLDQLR
Sequence of Inadl_4, Q8NI35 (Q8NI35 547-651): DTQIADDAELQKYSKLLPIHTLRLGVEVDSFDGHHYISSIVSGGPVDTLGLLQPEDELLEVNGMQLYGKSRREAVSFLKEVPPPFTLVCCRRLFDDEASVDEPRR
Sequence of MAGI2_2, Q86UL8 (Q86UL8 410-522): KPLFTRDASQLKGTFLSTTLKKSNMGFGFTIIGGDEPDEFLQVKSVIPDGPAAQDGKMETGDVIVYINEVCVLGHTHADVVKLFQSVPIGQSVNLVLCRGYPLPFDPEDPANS
Sequence of Inadl_3, Q8NI35 (Q8NI35 359-469): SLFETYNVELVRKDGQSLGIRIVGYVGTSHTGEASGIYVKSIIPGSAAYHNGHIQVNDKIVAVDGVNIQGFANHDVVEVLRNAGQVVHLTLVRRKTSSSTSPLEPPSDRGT
Sequence of HTRA1, Q92743 (Q92743 360-477): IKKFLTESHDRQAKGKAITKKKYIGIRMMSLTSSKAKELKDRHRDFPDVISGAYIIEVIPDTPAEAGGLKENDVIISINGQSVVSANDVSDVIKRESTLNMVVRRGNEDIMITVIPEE

ELSATVTTDC [TRIP6, Q15654]
4.2: [22]; [25]
4.06: [9]; [25]
3.48: [18]; [25]
4.27: [23]; [25]
3.65: [5]; [25]
3.56: [7]; [25]
3.92: [12]; [25]
4.23: [11]; [25]
below the threshold: [1]; [25] | [2]; [25] | [3]; [25] | [4]; [25] | [8]; [25] | [10]; [25] | [13]; [25] | [14]; [25] | [15]; [25] | [16]; [25] | [17]; [25] | [19]; [25] | [20]; [25] | [21]; [25] | [24]; [25]
3.62: [6]; [25]

QQSMSSADSTQA [SARS-Cov2-N, P0DTC9]
below the threshold: [1]; [26] | [2]; [26] | [3]; [26] | [4]; [26] | [5]; [26] | [6]; [26] | [7]; [26] | [8]; [26] | [9]; [26] | [10]; [26] | [11]; [26] | [12]; [26] | [13]; [26] | [14]; [26] | [15]; [26] | [16]; [26] | [17]; [26] | [18]; [26] | [19]; [26] | [20]; [26] | [21]; [26] | [22]; [26] | [23]; [26] | [24]; [26]

ARESQKVSHV [FAM110B, Q8TC76]
5.28: [16]; [25]
3.9: [13]; [25]
4.22: [11]; [25]
below the threshold: [1]; [25] | [2]; [25] | [4]; [25] | [5]; [25] | [6]; [25] | [8]; [25] | [9]; [25] | [10]; [25] | [15]; [25] | [17]; [25] | [19]; [25] | [21]; [25] | [24]; [25]
3.92: [23]; [25]
4.17: [3]; [25]
4.32: [7]; [25]
4.08: [14]; [25]
4.9: [18]; [25]
5.17: [22]; [25]
4.87: [20]; [25]
4.25: [12]; [25]
